These molecules were tested on HEK293 cells. Conditions: circular RNA encoding Gluc with the listed IRES (UTR truncated to 675 nt) transfected into HEK293 cells; supernatant after 24 hours.
Format: cell-based, human

Row | Molecule | Expression (luminescence from secreted Gluc protein)
1 | Hepatovirus C (nucleic acid, Hepatovirus C) DNA: TTCAAAAGCCCCAGCGGGGTTTCATTACCCCGCTGTGGCTTTTGGACTTCCCTAGGATGGGGAAGTAAATTACCATCCTCGCGTTTGCCGTGCGTTAACGGCTACTTTTCTTCTAGCTGTAGAAGTAAAATTCAGCATGTTTTATGTTTGTTTGTCTTGTTTGTTATATACATTTTTACACTCCTACAAATGCACATGAAGAACAGTTTGTAGAGATTAACAAACGCTTAGCTGAACCTAGGTGGTGAATCTAGTAGTAAGATAAGTAGAGGAAGCTATACCTTAAGTTGGTTGGGCCCTCGTGTTTGCTCTATAAACAAAACCAAGTGAGTAGAGTGGATGAACAGTACTAAATCCCTGAGTACAGGGAACCTCACAGGTGTGATACACTTATGTCTATGTGACCTGGTTGGAGGTTGGGCGTGCCCTATGATACTGGAGTGGGAGATCTTTTGGGGAACCCACGTTTTCACACTGCCTGATAGGGTCTTGCCGAGAGACTCACTTGTTTCGGCTGTACTTGTAAC | 5.08E+05
2 | Hepatovirus I (nucleic acid, Hepatovirus I) DNA: GGCTGCCTGTGTCTCAGGGGTAAGTACTGGGGCCGCGTTGACCGTGCGGTACGGTTATGCTTTTAGATTAGGATGTCCGTCTGTCCGGCACTCTCTTTTGCTTAAAATGGCCTTAAATCCATGGGAGGCGTAACCATGGGCCCTTTGTTACCTAGACATGATTGCATTGGGGGCCGTCCTTGGGGCTTAGGCCCCAGCCATTTCTCTTGACTCGTCTAAGAGTTTACTTCATCCTTTTCTTTACTTTATTTTCCAGGCTCTCAGCATGCCGACGGCTCTGACCACTGCGCCCGGTGGGGTTAACTGCATGATTAGCATGCAGCTGTAGGAGTTAAAAGTGCTGACAGGCCAATTCTGACGTAAGTCCACTCTATATTAACTTGATCAAGTAAGGTTGATTGATCTTTGTGAGAGGGTAGGCTACGGGTGAAACCCTCTAGGTTAATACTCATATTGAGAGATACCTCCAGAAGGTGAAGGTTGGCGGATATTGGTGAGTTCTTTTAGGACAAAAACCTTTCAACGCCTGTGGGCCCACCTCACTGGCACAATGCTTTCATCCCCAATTGTGATGGGTAGTTTGGACTGAAATCAGGAGTAACCTGCCCTACGAGTTTAGGGGTAGTTCAGGGGTATTTAGGCTTCCACATTTGATAGAGTTTATGAGAGTGAGCC | 8.79E+05
3 | Hepatovirus H2 (nucleic acid, listed as Hepatovirus sp.) DNA: GTCATGTTTCTCTTTAAGAACACTCAATTTTGGCCATAAGTGAGACTCTTGTCGAACCTTTCATGTCAGGACCATGTTAGGGCCATTATCCTTTTCCCTGGGGCATTCTTCTTGCCCCTGTTTCATCTTTCTATCATCTTTCTTCCGGGCTCTCACAATGCCAATGGAGCGACCGATGCGCACGTCGGGGTTAACCCATGGATTAGCCATGGGCTGTAGCTGCTAAAAGTTGTGACTCCTGAAGCATACTATCAATGGTAGTAGATGTAACTGAAACACTGAAGCTTCTCTGATCTTGAAAGAAGGGTAGGCTACGGGTGAAACCCTTCAGGTTAATACTCATATTGAGAGATACCTTTGGTAGGTTAACGTTGGCGGATAATGTTGAGTTTAACGACAATAAACATTCAACGCCTGTGGGCGAACCTCACCAATTTCATGCTTTGAAGTGAATGTGCGTAGGGTCTCTATCGGAGATGCTATGTGGATGGTGCCCTCCCTGGAAACAGGTTGTAGGGGTACTCAGGTGCACTTAGGTTTCCACATTTTAAAGATTTTTC | 1.08E+05

Reference: patent US20240245805A1 (Orna Therapeutics, Inc., priority 2020, published 2024)
